Series [1] has as its target T1, transthyretin (TTR) (Homo sapiens, UniProt P02766).
T1 construct: purchased Sigma-Aldrich
Put plainly: Transthyretin fibrillation ThT assay. The conditions noted are these: for effect on TTR fibril formation, overall: five αB crystallin peptides and control. The class given is biochemical. On the procedure:
The effect of the five αB crystallin peptides ST, DR, HG, LT, and ER on TTR fibrillation was measured using the ThT fluorescence assay (FIG. 26). The formation and inhibition of TTR fibrils was qualitatively verified by fluorescence and bright-field microscopy. The concentration of the peptides was varied relative to TTR to establish a concentration curve. In addition, the effect of a control neuropeptide (AT1) with no TTR fibril inhibition activity was measured and compared to the effect of the αB crystallin peptides on TTR fibril formation. The ThT fluorescence of 16 μM TTR alone incubated at 37° C. for 4 hrs, increased from ˜15,000 to ˜45,000 RFU. Addition of 3.2 μM αB crystallin peptides, ST, DR, LT, and HG decreased the ThT fluorescence of TTR by 15-70%. In contrast, 3.2 μM ER had no effect on TTR fibril formation. Increasing the concentration of the ER peptide to 16 μM decreased the ThT fluorescence of TTR by 60%. The negative control peptide AT1 had no effect on TTR fibrillation even at a concentration as high as 160 μM. All five αB crystallin peptides inhibited TTR fibrillation at sub-stoichometric and stoichometric concentrations (3.2 μM and 16 μM).
The Thioflavin T (ThT) fluorescence of TTR in the presence of varying concentrations of αB crystallin peptides and controls was measured. […] When the concentration of the peptides was increased to 16 μM (1:1::peptide:TTR), the αB crystallin peptides ST, DR, HG, LT and ER decreased the ThT fluorescence by 8-72%. When the concentration of the peptides was increased further to 80 μM ([…]), all of the five αB crystallin peptides ST, DR, HG, LT, and ER decreased the ThT fluorescence by 40-70%. […] The formation and inhibition of TTR fibrils was verified microscopically.
Transthyretin fibrillation ThT assays were performed as described previously. Hurshman et al., Biochemistry 43:7365-81, 2004; O'Nuallain and Wetzel, Proc Natl Acad Sci USA 99:1485-90, 2002. Peptides were dissolved to 2 mM in 0.25% DMSO and diluted accordingly, while TTR was dissolved in 200 mM KCl, 2 mM EDTA, 5 mM PBS, 200 mM sodium acetate, pH 4.4. For the 5::peptide:TTR assay, 10 μL of 160 μM peptide was mixed with 10 μL of 32 μM TTR, and 1 μL of 1 mM ThT. For the 1:1::peptide:TTR assay, 10 μL of 32 μM peptide was mixed with 10 μL of 32 μM TTR and 1 μL of 1 mM ThT. For the 1:5::peptide:TTR assay, 10 μL of 6.4 μM peptide was mixed with 10 μL of 32 μM TTR and 1 μL of 1 mM ThT. ThT fluorescence was measured using a Perkin Elmer Victor^3 V plate reader. Assays were performed in 384-well fluorescence plates in duplicates or triplicates. Samples were incubated at 37° C. ThT fluorescence was measured continuously for 150 minutes. The effect of the peptides and APS was calculated as percentage fibril formation relative to TTR alone (100%) at the end of 150 minutes.

The target of series [2] is T2, equine alcohol dehydrogenase (ADH) (Equus caballus, UniProt P00327).
T2 construct: purchased Sigma-Aldrich, MO 05646
T2 sequence (P00327 whole entry): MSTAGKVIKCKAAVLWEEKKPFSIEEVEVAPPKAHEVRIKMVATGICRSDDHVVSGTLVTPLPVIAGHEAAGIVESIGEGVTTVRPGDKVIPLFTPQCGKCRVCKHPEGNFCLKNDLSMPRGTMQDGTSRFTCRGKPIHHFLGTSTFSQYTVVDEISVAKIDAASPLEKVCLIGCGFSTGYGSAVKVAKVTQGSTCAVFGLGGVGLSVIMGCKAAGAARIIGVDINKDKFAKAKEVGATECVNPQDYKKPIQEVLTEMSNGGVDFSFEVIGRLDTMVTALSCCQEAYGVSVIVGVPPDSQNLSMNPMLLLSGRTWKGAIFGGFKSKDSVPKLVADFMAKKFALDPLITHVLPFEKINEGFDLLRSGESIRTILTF
Put plainly: αB crystallin protein pin array with alcohol dehydrogenase. Type of series: binding. As to conditions: ADH as ligand in the pin array. An excerpt:
Synthesis of Pins, binding and detection of peptides binding to ligand proteins. The αB crystallin protein pin array was used to measure the interaction between peptides and chaperone target proteins including bovine βH crystallin, human γD crystallin, equine alcohol dehydrogenase (ADH) and porcine citrate synthase (CS) as described (FIG. 12). Ghosh and Clark, Protein Sci 14: 684-95, 2005.
Refer to the methods section for detailed protocols. The absorbance corresponding to the blue coloration in each well was measured at λ=450 nm and plotted against the amino acid sequence of the corresponding peptide in that well (FIGS. 13 and 14). Wells containing peptides that have strong interactions with target proteins are dark blue and wells containing peptides that have weak or no interaction with target proteins are light blue or clear.
The purity of the target proteins used in the pin array assays, bovine βH crystallin, human γD crystallin, equine alcohol dehydrogenase (ADH) and porcine citrate synthase (CS) were determined to be >90% by SDS-PAGE. In addition, primary antibodies for each target protein were specific to that target protein and consequently contaminating proteins that may bind to the peptides will not be detected. Eighty-four sequential and overlapping peptide fragments corresponding to residues 1-175 of human αB crystallin were synthesized employing a simultaneous peptide synthesis strategy developed by Geysen, called Multipin Peptide Synthesis (Mimotopes, San Diego, Calif.). Geysen, Southeast Asian J Trop Med Public Health 21: 523-33, 1990; Chin et al., J Org Chem 62: 538-539, 1997. Peptides were immobilized on derivatized polyethylene pins arranged in a microtiter ELISA plate format. Each peptide was eight amino acids in length and consecutive peptides were offset by two amino acids. All peptides were bound covalently to the surface of the plastic pins. The first peptide was 1MDIAIHHP8 and the last peptide was 168PAVTAAPK175 for human αB crystallin.
Ghosh and Clark, Protein Sci 14: 684-95, 2005. […] The intensity of the blue color in the wells was measured at 450 nm using an ELISA plate-reader (BioTek, Winooski, Vt.). The intensity of the blue color (plotted on the X-axis) was a measure of the interaction between αB crystallin peptides (plotted on the Y-axis) and target proteins. To measure the effect of temperature on the interactions between interactive peptides and the target proteins, the target proteins were heated in a water-bath at 45° C. for fifteen minutes prior to use. Pin arrays are unable to differentiate between monomers, dimers or oligomers of target proteins that exist in solution. Instead, pin arrays are very sensitive detectors of interactions between individual peptides and the entire population (monomers, dimers or oligomers) of specific target proteins that may exist in solution under specific conditions. Each target protein was assayed two to five times. A single pin array was used for all experiments and no change in interactions was observed after more than thirty repetitions. The last three peptides of the protein pin array, 163REEKPAVT170, 165EKPAVTAA172, 167PAVTAAPK174, correspond to the epitope (163REEKPAVTAAPKK175) recognized by the primary antibody for human αB crystallin. A positive reaction is observed for these three peptides in the absence of human αB crystallin as the ligand due to direct binding of the anti-human αB crystallin antibody to these three peptides. The loss of efficiency for the pin array was measured using this assay. The loss of efficiency for the pin array was determined to be <5% by after more than 30 assays.
The pattern of absorbance at k=450 nm when αB crystallin peptides were assayed with unheated and pre-heated ADH was similar to the absorbance pattern obtained with unheated and pre-heated βH/γD crystallin (FIG. 17). […]

The conditions of series [3]: as provided by manufacturer (Mimotopes); cited from earlier work.

“Also recorded” adds a separate entry of the source.

Regarding DRFSVNLDVKHFS, the “effect on TTR fibril formation, overall” value in series [1] was “strong inhibition”. ERTIPITRE: the “decrease in ThT fluorescence of TTR” value in series [1] (3.2 μM, 16 μM TTR, 37° C.) is “no effect”. Further, the “effect on TTR fibril formation, overall” value in series [1] is listed as “modestly inhibited”. On to FSVNLDVK [Peptide 38], for which the “absorbance at 450 nm, interaction with ADH” value (“absorbance at 450 nm” below) in series [2] is listed as “Maximum absorbances”. In series [3], the Hydrophobicity was 0.44. For HGKHEERQDE, the “effect on TTR fibril formation, overall” value in series [1] (listed as HG) is “most effective inhibitor; also recorded: strong inhibition”. Turning to LTITSSLS [Peptide 66], the “absorbance at 450 nm” value in series [2] is reported as “Maximum absorbances”. Besides, in series [3], the Hydrophobicity is 0.7.

With LTITSSLSSDGV, the “effect on TTR fibril formation, overall” value in series [1] was “partially inhibited”. Same read-out and setting: then STSLSPFYLRPPSFLRAP, with “partially inhibited”. As to WIRRPFFP [Peptide 5], the “absorbance at 450 nm” value in series [2] was “Maximum absorbances”. Moreover, in series [3], the Hydrophobicity is given as 0.88.
